B1: C-type mannose receptor 2 (Homo sapiens), Q9UBG0 (parent)
chain: MGPGRPAPAPWPRHLLRCVLLLGCLHLGRPGAPGDAALPEPNVFLIFSHGLQGCLEAQGGQVRVTPACNTSLPAQRWKWVSRNRLFNLGTMQCLGTGWPGTNTTASLGMYECDREALNLRWHCRTLGDQLSLLLGARTSNISKPGTLERGDQTRSGQWRIYGSEEDLCALPYHEVYTIQGNSHGKPCTIPFKYDNQWFHGCTSTGREDGHLWCATTQDYGKDERWGFCPIKSNDCETFWDKDQLTDSCYQFNFQSTLSWREAWASCEQQGADLLSITEIHEQTYINGLLTGYSSTLWIGLNDLDTSGGWQWSDNSPLKYLNWESDQPDNPSEENCGVIRTESSGGWQNRDCSIALPYVCKKKPNATAEPTPPDRWANVKVECEPSWQPFQGHCYRLQAEKRSWQESKKACLRGGGDLVSIHSMAELEFITKQIKQEVEELWIGLNDLKLQMNFEWSDGSLVSFTHWHPFEPNNFRDSLEDCVTIWGPEGRWNDSPCNQSLPSICKKAGQLSQGAAEEDHGCRKGWTWHSPSCYWLGEDQVTYSEARRLCTDHGSQLVTITNRFEQAFVSSLIYNWEGEYFWTALQDLNSTGSFFWLSGDEVMYTHWNRDQPGYSRGGCVALATGSAMGLWEVKNCTSFRARYICRQSLGTPVTPELPGPDPTPSLTGSCPQGWASDTKLRYCYKVFSSERLQDKKSWVQAQGACQELGAQLLSLASYEEEHFVANMLNKIFGESEPEIHEQHWFWIGLNRRDPRGGQSWRWSDGVGFSYHNFDRSRHDDDDIRGCAVLDLASLQWVAMQCDTQLDWICKIPRGTDVREPDDSPQGRREWLRFQEAEYKFFEHHSTWAQAQRICTWFQAELTSVHSQAELDFLSHNLQKFSRAQEQHWWIGLHTSESDGRFRWTDGSIINFISWAPGKPRPVGKDKKCVYMTASREDWGDQRCLTALPYICKRSNVTKETQPPDLPTTALGGCPSDWIQFLNKCFQVQGQEPQSRVKWSEAQFSCEQQEAQLVTITNPLEQAFITASLPNVTFDLWIGLHASQRDFQWVEQEPLMYANWAPGEPSGPSPAPSGNKPTSCAVVLHSPSAHFTGRWDDRSCTEETHGFICQKGTDPSLSPSPAALPPAPGTELSYLNGTFRLLQKPLRWHDALLLCESRNASLAYVPDPYTQAFLTQAARGLRTPLWIGLAGEEGSRRYSWVSEEPLNYVGWQDGEPQQPGGCTYVDVDGAWRTTSCDTKLQGAVCGVSSGPPPPRRISYHGSCPQGLADSAWIPFREHCYSFHMELLLGHKEARQRCQRAGGAVLSILDEMENVFVWEHLQSYEGQSRGAWLGMNFNPKGGTLVWQDNTAVNYSNWGPPGLGPSMLSHNSCYWIQSNSGLWRPGACTNITMGVVCKLPRAEQSSFSPSALPENPAALVVVLMAVLLLLALLTAALILYRRRQSIERGAFEGARYSRSSSSPTEATEKNILVSDMEMNEQQE

Variants of: B1
Conditions: with co1a1_rat Col1a1, P02454
Chain of co1a1_rat Col1a1, P02454 (P02454 whole entry): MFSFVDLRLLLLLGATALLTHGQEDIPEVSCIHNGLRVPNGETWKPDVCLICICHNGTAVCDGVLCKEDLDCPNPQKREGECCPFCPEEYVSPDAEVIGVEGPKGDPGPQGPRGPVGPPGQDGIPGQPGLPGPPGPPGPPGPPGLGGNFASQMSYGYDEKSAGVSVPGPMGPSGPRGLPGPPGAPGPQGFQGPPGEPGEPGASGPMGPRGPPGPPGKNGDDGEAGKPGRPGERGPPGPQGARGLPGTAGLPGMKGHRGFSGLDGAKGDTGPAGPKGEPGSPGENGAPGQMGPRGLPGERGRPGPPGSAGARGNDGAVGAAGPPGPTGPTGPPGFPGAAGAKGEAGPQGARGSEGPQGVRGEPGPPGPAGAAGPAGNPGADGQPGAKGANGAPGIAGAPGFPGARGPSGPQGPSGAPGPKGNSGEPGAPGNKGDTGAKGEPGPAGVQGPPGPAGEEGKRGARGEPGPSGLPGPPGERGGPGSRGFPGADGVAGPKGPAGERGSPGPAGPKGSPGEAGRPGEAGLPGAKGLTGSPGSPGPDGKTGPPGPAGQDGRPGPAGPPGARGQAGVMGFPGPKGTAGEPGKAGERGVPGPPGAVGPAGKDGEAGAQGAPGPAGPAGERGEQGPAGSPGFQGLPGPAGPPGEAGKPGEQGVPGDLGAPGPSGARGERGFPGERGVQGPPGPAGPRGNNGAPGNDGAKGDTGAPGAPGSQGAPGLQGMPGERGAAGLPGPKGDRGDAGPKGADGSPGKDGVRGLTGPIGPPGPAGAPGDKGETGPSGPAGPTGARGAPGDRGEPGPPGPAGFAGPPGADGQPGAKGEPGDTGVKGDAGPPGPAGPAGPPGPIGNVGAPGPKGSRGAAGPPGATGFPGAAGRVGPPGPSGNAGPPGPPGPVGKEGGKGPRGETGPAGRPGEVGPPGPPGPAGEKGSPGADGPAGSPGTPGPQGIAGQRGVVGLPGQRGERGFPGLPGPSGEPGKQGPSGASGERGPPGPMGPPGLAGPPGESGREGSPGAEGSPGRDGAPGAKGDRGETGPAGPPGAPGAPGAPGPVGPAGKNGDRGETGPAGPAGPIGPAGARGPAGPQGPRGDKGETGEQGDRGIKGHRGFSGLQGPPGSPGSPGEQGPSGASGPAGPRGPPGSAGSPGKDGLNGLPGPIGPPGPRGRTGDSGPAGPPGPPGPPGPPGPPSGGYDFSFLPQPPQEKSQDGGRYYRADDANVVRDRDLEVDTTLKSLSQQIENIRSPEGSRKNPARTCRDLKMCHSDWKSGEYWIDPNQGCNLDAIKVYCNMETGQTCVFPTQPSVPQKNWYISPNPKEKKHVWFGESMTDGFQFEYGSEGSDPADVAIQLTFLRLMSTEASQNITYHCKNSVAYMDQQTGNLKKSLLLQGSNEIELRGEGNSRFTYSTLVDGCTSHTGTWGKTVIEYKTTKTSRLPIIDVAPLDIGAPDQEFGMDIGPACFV

| Variant | effect of a mutation on the interaction |
| --- | --- |
| Y193A | disrupting interaction strength |
| Y292N;S294T | decreasing interaction strength |
| R206A;D208A | disrupting interaction strength |
| Y219A | disrupting interaction strength |
| Q179N;N181T | disrupting interaction strength |

From IntAct's records for PubMed 26481812
